Assay results as given in US20230416329A1 (INSTITUTE OF MATERIA MEDICA CHINESE ACADEMY OF MEDICAL …, published 2023).
Blank lines part the entries; values can stand above or below the binder they belong to. Bridge positions count the residues as written; N and C are the ends. Ends that are not written are not given here.

Columns and labels:
bovine trypsin [1] = biological target: T1, bovine trypsin (bovine, UniProt P00760 24-246); assay: trypsin (50 nM) BApNA hydrolysis, OD405; peptide at 0.98 µM
T1 sequence (P00760 24-246): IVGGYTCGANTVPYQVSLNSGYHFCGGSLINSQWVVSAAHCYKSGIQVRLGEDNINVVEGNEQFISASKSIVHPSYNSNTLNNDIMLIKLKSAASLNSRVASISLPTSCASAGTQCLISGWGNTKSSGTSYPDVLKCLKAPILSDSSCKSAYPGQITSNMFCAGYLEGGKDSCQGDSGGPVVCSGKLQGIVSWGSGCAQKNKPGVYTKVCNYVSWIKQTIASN
Method: (§1) The substrates N-succinyl-Ala-Ala-Pro-Phe-p-nitroaniline (AAPFpNA), Nα—Benzoyl-L-arginine-4-nitroaniline hydrochloride (BApNA) and N-succinyl-[…] (AAApNA) are used in competitive binding reaction to determine the inhibitory activities against α-chymotrypsin, bovine trypsin, and porcine pancreatic elastase, respectively. Experiments for α-chymotrypsin and bovine trypsin inhibition were measured in 20 mM CaCl₂, 50 mM Tris-HCl buffer (pH 7.8), and that for porcine elastase inhibition was measured in 50 mM Tris-HCl buffer (pH 8.0). The concentration of the peptide was measured using optical density (OD) at 280 nm. The Michaelis constant (Kₘ) of the enzyme hydrolysis substrate is calculated from the initial rate of substrate hydrolysis at 405 nm. The absorbance value of the substrate was measured at 405 nm after complete hydrolysis. All data were processed using nonlinear regression.
(§2) (1) Added a total 190 μL of reaction buffer (20 mM CaCl₂ and 50 mM Tris-HCl, pH 7.8) along with different concentrations of anti-trypsin peptides (BTs) into the pre-cooled 96-well plate, followed by preheating at 37° C., and spined down at 500 rpm for 5 min. Next added 10 μL of 1 μM trypsin, incubated at 37° C., and then spined down at 500 rpm for 10 min. Finally, added 5 μL of 50 mM BApNA, and mixed by centrifugation at 500 rpm for 1 min. […] The experiment was performed in triplicate. The blank control only contained the reaction buffer and the substrate as the minimum absorption value (Min OD_{405 nm}). The negative control only contained the reaction buffer, the enzyme and the substrate as the maximum absorption value (Max OD_{405 nm}). […] (2) In the reaction system of 205 μL, the final concentrations of trypsin and BApNA were 50 nM and 1.22 mM, respectively. [0456] (3) Data statistics

bovine trypsin [2] = biological target: T1, bovine trypsin; assay: trypsin (50 nM) BApNA hydrolysis, OD405; peptide at 0.0488 µM
Method: as §1, §2

bovine trypsin [3] = biological target: T1, bovine trypsin; assay: trypsin (50 nM) BApNA hydrolysis, OD405; peptide at 0.000098 µM
Method: as §1, §2

bovine trypsin [4] = biological target: T1, bovine trypsin; assay: trypsin (50 nM) BApNA hydrolysis, OD405; peptide at 0.00098 µM
bovine trypsin [5] = biological target: T1, bovine trypsin; assay: trypsin (50 nM) BApNA hydrolysis, OD405; peptide at 9.76 µM
Method: as §1, §2

bovine trypsin [6] = biological target: T1, bovine trypsin; assay: trypsin (50 nM) BApNA hydrolysis, OD405; peptide at 0.0098 µM
Method: as §1, §2

bovine trypsin [7] = biological target: T1, bovine trypsin; assay: trypsin (50 nM) BApNA hydrolysis, OD405; peptide at 0.0780 µM
Method: as §1
(1) Added a total 190 μL of reaction buffer (20 mM CaCl₂ and 50 mM Tris-HCl, pH 7.8) along with different concentrations of anti-trypsin peptides (BTs) into the pre-cooled 96-well plate, followed by preheating at 37° C., and spined down at 500 rpm for 5 min. Next added 10 μL of 1 μM trypsin, incubated at 37° C., and then spined down at 500 rpm for 10 min. Finally, added 5 μL of 50 mM BApNA, and mixed by centrifugation at 500 rpm for 1 min. […] The experiment was performed in triplicate. […]

bovine trypsin [8] = biological target: T1, bovine trypsin; assay: trypsin (50 nM) BApNA hydrolysis, OD405; peptide at 97.56 µM
Method: as §1, §2

bovine trypsin [9] = biological target: T1, bovine trypsin; assay: trypsin (50 nM) BApNA hydrolysis, OD405; peptide at 0.098 µM
Method: as §1, §2

bovine trypsin [10] = biological target: T1, bovine trypsin; assay: trypsin (50 nM) BApNA hydrolysis, OD405; peptide at 9.76 µM; remark: listed apart in the source
bovine trypsin [11] = biological target: T1, bovine trypsin; assay: trypsin (50 nM) BApNA hydrolysis, OD405; peptide at 0.0488 µM; remark: listed apart in the source
bovine trypsin [12] = biological target: T1, bovine trypsin; assay: trypsin (50 nM) BApNA hydrolysis, OD405; peptide at 0.0098 µM; remark: listed apart in the source
bovine trypsin [13] = biological target: T1, bovine trypsin; assay: trypsin (50 nM) BApNA hydrolysis, OD405; peptide at 0.98 µM; remark: listed apart in the source
bovine trypsin [14] = biological target: T1, bovine trypsin; assay: trypsin (50 nM) BApNA hydrolysis, OD405; peptide at 0.00098 µM; remark: listed apart in the source
bovine trypsin [15] = biological target: T1, bovine trypsin; assay: trypsin (50 nM) BApNA hydrolysis, OD405; peptide at 0.098 µM; remark: listed apart in the source
[16] = biological target: porcine pancreatic elastase (porcine, UniProt P00772 27-266); assay: elastase inhibition, AAApNA substrate
Sequence of porcine pancreatic elastase (P00772 27-266 limits assumed): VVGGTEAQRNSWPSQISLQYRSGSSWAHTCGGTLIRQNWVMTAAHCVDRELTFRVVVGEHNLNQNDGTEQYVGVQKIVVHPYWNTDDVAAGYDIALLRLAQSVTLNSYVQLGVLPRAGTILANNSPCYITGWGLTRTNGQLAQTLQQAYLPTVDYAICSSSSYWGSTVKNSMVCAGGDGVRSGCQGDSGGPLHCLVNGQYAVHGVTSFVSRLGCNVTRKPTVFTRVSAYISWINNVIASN
Method: as §1
(1) Added a total 190 μL of different concentrations of peptides (ECs) against elastase and reaction buffer (20 mM CaCl₂, 50 mM Tris-HCl buffer (pH 8.0)) into the pre-cold 96 well plate, followed by preheating at 37° C. for 5 min and centrifugated at 500 rpm for 1 min and allowed to stand for 4 minutes. […] Finally, added 2 μL of 100 mM AAApNA, and mixed by centrifugation at 500 rpm for 1 min. The plate was incubated at 37° C. for 60 min, and the absorbance value at 405 nm was measured. […]

B1: BT47 (peptide)
peptide: CGRSTKSIPPICF
modifications: disulfide 1-12 (inferred)
notes: synthetic
Residual trypsin activity (%) (bovine trypsin [1]): 0.2% | Residual trypsin activity (%) (bovine trypsin [2]): 57.4% | Residual trypsin activity (%) (bovine trypsin [3]): 103% | Residual trypsin activity (%) (bovine trypsin [4]): 105% | Residual trypsin activity (%) (bovine trypsin [5]): 0% | Residual trypsin activity (%) (bovine trypsin [6]): 108% | Residual trypsin activity (%) (bovine trypsin [7]): 39% | Residual trypsin activity (%) (bovine trypsin [8]): 0.1% | Residual trypsin activity (%) (bovine trypsin [9]): 5.6%

B2: BT54 (peptide)
peptide: CGRQTKSIPPICF
modifications: disulfide 1-12 (inferred)
notes: synthetic
Residual trypsin activity (%) (bovine trypsin [1]): 0.1% | Residual trypsin activity (%) (bovine trypsin [2]): 65.8% | Residual trypsin activity (%) (bovine trypsin [3]): 101% | Residual trypsin activity (%) (bovine trypsin [4]): 99.2% | Residual trypsin activity (%) (bovine trypsin [5]): -0.1% | Residual trypsin activity (%) (bovine trypsin [6]): 99.9% | Residual trypsin activity (%) (bovine trypsin [7]): 24.3% | Residual trypsin activity (%) (bovine trypsin [9]): 7.2%

B3: BT66 (peptide)
peptide: CPRATKSIPPICF
modifications: disulfide 1-12 (inferred)
notes: synthetic
Residual trypsin activity (%) (bovine trypsin [10]): 0.1% | Residual trypsin activity (%) (bovine trypsin [11]): 66.8% | Residual trypsin activity (%) (bovine trypsin [12]): 106% | Residual trypsin activity (%) (bovine trypsin [13]): 0.1% | Residual trypsin activity (%) (bovine trypsin [14]): 105% | Residual trypsin activity (%) (bovine trypsin [15]): 4.8%

The next lines start with the values.

Residual trypsin activity (%) (bovine trypsin [10]): 0.1% | Residual trypsin activity (%) (bovine trypsin [11]): 49.6% | Residual trypsin activity (%) (bovine trypsin [12]): 102% | Residual trypsin activity (%) (bovine trypsin [13]): 0.1% | Residual trypsin activity (%) (bovine trypsin [14]): 104% | Residual trypsin activity (%) (bovine trypsin [15]): 1.5%
B4: BT67 (peptide)
peptide: CARATKSIPPICF
modifications: disulfide 1-12 (inferred)
notes: synthetic

binding result [16]: binds
B5: EC2 (peptide)
peptide: LCTLSIPPQCY
modifications: disulfide 2-10 (inferred)

binding result [16]: binds
B6: EC7 (peptide)
peptide: CGLATLSIPPICQ
modifications: disulfide 1-12 (inferred)
